Test results as given in US20100297003A1 (TECNOGEN S C P A, published 2010).

What was measured:
[1] = molecular target: human tenascin C (human) (UniProt P24821); experiment: BIAcore on tenascin C
[2] = molecular target: T1, Tn (A(1-4)-D) fragment of human tenascin (human, UniProt P24821 1076-1711, limits assumed); experiment: BIAcore on Tn (A1-4-D) fragment
T1 construct: domain: A(1-4)-D
T1 sequence (looked up): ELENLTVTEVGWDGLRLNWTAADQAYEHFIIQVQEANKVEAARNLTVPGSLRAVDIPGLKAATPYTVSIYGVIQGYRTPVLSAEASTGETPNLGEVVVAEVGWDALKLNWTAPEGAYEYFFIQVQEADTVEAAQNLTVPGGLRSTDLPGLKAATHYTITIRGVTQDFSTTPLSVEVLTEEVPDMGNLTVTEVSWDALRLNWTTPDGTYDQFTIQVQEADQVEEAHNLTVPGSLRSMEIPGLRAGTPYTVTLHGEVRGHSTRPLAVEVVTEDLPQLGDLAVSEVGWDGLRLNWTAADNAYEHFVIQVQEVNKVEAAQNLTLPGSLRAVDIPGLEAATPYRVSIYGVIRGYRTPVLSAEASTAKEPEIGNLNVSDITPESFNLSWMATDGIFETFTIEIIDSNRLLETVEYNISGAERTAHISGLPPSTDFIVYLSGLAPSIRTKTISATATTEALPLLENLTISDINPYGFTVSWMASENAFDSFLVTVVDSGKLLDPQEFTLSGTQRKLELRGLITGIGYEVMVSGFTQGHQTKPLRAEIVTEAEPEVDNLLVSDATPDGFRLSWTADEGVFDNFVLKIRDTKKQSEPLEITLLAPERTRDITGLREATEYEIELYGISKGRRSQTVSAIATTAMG

[3] = molecular target: human tenascin C (human) (UniProt P24821); experiment: ELISA on tenascin C, biotinylated against non-biotinylated antibody
[4] = molecular target: T1, Tn (A(1-4)-D) fragment of human tenascin; experiment: ELISA on Tn A(1-4)-D fragment, biotinylated against non-biotinylated antibody
[5] = molecular target: human tenascin C (human) (UniProt P24821); experiment: BIAcore on whole tenascin
[6] = molecular target: T2, EGF-like fragment of human tenascin (human, UniProt P24821 174-621, limits assumed); experiment: Western blot
T2 construct: domain: EGF-like
T2 sequence (looked up): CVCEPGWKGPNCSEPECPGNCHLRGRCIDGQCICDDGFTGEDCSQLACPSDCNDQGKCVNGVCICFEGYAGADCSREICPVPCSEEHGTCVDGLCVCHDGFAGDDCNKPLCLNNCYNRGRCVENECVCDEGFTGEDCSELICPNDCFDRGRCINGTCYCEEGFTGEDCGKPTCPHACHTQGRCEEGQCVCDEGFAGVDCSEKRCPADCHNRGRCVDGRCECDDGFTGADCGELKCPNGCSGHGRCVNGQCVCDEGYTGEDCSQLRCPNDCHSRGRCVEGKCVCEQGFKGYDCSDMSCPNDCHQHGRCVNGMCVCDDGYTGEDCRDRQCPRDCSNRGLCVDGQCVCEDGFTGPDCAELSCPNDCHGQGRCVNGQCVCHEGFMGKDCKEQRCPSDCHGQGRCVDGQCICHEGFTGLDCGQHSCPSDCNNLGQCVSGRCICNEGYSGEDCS

[7] = molecular target: human tenascin C (human) (UniProt P24821); experiment: competitive ELISA on tenascin C; competitor biotinylated BC-2 at fixed concentration
[8] = molecular target: T1, Tn (A(1-4)-D) fragment of human tenascin; experiment: ELISA on plates coated with Tn A(1-4)-D fragment, reference BC-2
Procedure: The immunoreactivity of ST2485 was evaluated in comparison with BC-2 by ELISA assay on tenascin C and on the Tn A₍₁₋₄₎-D fragment, as shown in FIG. 7. The antibodies ST2485 and BC-2 and the normal mouse immunoglobulins (nMIgG) were dispensed at increasing concentrations on plates sensitised with tenascin C (a) or with the Tn A₍₁₋₄₎-D fragment (b); the addition of the secondary antimouse antibody labelled with alkaline phosphatase and the related chromogenic substrate (pNPP) made it possible to determine the dose-response curve of the antibodies. The amount of ST2485 necessary to obtain 1.0 OD is approximately 13 times less than the amount of BC-2 on whole tenascin (a), and approximately 10 times less than the amount of BC-2 on the Tn (A1-4-D) fragment (b).

[9] = molecular target: human tenascin C (human) (UniProt P24821); experiment: ELISA on plates coated with tenascin C, reference BC-2
[10] = molecular target: human tenascin C (human) (UniProt P24821); experiment: ELISA on plates coated with tenascin C, alkaline phosphatase anti-mouse antibody, pNPP
[11] = molecular target: T1, Tn (A(1-4)-D) fragment of human tenascin; experiment: competitive ELISA on plates coated with Tn A(1-4)-D fragment; unlabelled antibody at increasing concentration against biotinylated BC-2 at a fixed concentration, HRP-streptavidin/TMB
Procedure: The biotinylated antibody BC-2, at a concentration established in preliminary experiments, is dispensed with non-biotinylated BC-2 (curve 1) or ST2485 (curve 2) in increasing concentrations on plates sensitised with the antigen tenascin C (a), or Tn A₍₁₋₄₎-D fragment (b). The binding of the biotinylated antibody is measured after addition of HRP-streptavidin and the related chromogenic substrate TMB.

[12] = molecular target: human tenascin C (human) (UniProt P24821); experiment: BIAcore on whole tenascin, reference biotinylated BC-2

human tenascin C (human), sequence (P24821 23-2201): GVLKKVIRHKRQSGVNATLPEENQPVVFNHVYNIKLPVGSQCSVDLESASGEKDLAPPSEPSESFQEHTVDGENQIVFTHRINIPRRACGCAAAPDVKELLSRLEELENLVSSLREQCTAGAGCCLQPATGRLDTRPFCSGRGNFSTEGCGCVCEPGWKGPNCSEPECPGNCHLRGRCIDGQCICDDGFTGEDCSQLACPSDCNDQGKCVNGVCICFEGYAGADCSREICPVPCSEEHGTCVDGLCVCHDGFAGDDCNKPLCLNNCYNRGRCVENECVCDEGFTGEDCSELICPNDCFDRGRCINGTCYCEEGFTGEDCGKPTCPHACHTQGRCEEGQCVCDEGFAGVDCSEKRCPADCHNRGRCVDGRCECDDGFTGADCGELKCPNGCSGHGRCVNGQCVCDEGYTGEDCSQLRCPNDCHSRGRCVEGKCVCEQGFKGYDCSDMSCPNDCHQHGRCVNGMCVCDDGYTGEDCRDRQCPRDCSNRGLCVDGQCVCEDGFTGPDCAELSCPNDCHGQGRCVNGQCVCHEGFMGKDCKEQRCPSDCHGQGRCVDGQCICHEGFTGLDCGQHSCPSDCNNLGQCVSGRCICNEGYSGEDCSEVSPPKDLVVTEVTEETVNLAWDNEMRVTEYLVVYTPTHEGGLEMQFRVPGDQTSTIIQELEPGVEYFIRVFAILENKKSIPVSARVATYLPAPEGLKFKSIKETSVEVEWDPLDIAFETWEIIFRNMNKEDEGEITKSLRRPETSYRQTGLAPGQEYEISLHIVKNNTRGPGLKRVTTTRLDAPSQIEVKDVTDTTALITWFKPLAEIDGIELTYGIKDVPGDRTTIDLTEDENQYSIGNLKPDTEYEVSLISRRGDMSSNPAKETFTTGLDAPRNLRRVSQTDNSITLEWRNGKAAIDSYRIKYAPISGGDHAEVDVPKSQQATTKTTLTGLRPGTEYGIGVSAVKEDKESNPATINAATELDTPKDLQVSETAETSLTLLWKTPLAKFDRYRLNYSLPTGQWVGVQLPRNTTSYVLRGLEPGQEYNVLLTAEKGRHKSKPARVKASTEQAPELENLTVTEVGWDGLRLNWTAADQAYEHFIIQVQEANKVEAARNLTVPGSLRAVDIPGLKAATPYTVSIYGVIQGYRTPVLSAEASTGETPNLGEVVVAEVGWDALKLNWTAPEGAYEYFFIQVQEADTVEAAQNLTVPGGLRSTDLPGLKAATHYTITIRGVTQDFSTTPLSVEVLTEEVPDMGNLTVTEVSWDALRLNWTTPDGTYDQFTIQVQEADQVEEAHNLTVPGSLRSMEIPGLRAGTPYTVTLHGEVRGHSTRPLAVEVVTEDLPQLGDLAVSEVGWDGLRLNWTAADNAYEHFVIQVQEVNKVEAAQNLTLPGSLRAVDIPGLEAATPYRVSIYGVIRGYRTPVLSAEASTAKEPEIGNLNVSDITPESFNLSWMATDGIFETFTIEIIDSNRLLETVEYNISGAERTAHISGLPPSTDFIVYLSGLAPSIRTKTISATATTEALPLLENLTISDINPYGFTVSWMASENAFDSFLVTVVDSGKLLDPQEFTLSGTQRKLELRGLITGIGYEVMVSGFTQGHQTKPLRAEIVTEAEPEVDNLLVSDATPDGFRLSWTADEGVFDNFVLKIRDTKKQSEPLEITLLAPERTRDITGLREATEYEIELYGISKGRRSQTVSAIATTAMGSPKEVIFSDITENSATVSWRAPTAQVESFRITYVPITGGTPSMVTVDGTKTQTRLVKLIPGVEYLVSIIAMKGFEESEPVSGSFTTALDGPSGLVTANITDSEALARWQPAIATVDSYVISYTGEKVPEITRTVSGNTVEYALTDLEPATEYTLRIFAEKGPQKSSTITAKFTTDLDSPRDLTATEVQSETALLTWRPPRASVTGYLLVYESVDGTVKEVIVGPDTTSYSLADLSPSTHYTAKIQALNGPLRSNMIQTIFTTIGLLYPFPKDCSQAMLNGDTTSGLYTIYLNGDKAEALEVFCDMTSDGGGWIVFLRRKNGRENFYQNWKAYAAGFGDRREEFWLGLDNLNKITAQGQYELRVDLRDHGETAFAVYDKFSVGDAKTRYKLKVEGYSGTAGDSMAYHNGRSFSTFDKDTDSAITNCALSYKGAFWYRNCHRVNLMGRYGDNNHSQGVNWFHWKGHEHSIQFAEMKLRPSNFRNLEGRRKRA

anti-tenascin monoclonal antibody BC-2
Kd [1]: 254 nM | Kd [2]: 73.9 nM

biotinylated BC-2 (antibody)
residual immunoreactivity [3]: 88% | residual immunoreactivity [4]: 83% | Kd [5]: 371 nM

B1: anti-human tenascin monoclonal antibody ST2485 (antibody, V domains shown)
VH: EVQLQQSGPELVKPGASMKISCKASGYSFTGYTMNWVKQSHGKNLEWIGLINPHNGGTTYNQKFKGKATLTVDKSSNTAYMELLSLTSEDSAVYYCTRPGGYYWFFDVWGAGTTVTVSS
VL: QIVLSQSPAILSASPGEKVTMTCRANSSVRFMHWYQQKPGSSPKPWIYATSNLASGVPARFSGSGSGTSYSVTISRVEAEDAATYYCQQWSSNSPRTFGGGTKVEIRR
modifications: part of the light chain is N-glycosylated (glycosylated and non-glycosylated variants; site not numbered)
notes: Mouse immunoglobulin of IgG1/k isotype from hybridoma cST2485
binding result [6]: no binding | % inhibition of BC-2 binding [7]: 40% | fold less antibody than BC-2 needed to obtain 1.0 OD [8]: ~10 fold | Kd [1]: 0.977 nM | Kd [2]: 0.972 nM | koff [2]: 0.000319 s⁻¹ | kon [2]: 328000 M⁻¹ s⁻¹ | fold less antibody than BC-2 needed to obtain 1.0 OD [9]: 13 fold | EC50 (read off the curve) [10]: 0.02 µg/mL | IC50 (read off the curve) [11]: ~0.03 µg/mL

B2: biotinylated ST2485 (antibody, V domains shown)
VH: EVQLQQSGPELVKPGASMKISCKASGYSFTGYTMNWVKQSHGKNLEWIGLINPHNGGTTYNQKFKGKATLTVDKSSNTAYMELLSLTSEDSAVYYCTRPGGYYWFFDVWGAGTTVTVSS
VL: QIVLSQSPAILSASPGEKVTMTCRANSSVRFMHWYQQKPGSSPKPWIYATSNLASGVPARFSGSGSGTSYSVTISRVEAEDAATYYCQQWSSNSPRTFGGGTKVEIRR
modifications: biotinylated, 8.3 biotins/molecule of antibody (sites not given)
residual immunoreactivity [3]: 76% | fold greater affinity than biotinylated BC-2 [12]: 100 fold | Kd [5]: 2.88 nM
